The target of assay [1] is T1, SARS-COV-2 RBD (SARS-COV-2, UniProt P0DTC2 319-539).
T1 construct: also called WT RBD
Nature of the assay: ELISA, RBD coated. A general note: An ELISA detects its analyte on a solid surface through an enzyme-linked reagent.

Assay [2] has as its target T2, SARS-COV-2 RBD (SARS-COV-2, UniProt P0DTC2 319-539).
T2 construct: also called WT RBD
Kind of assay: ELISA, RBD coated on plate.

Residue numbers refer to the chain shown, from its start.

B1: C1027 (antibody, V domains shown)
VH: EVQLVESGGGLVQPGGSLRLSCAASGFIVTTNYMSWVRQAPGKGLEWVSLIYPGGSTFYADSVEGRFTISRDNSKNTLYLQVNSLRVEDTAVYYCARDTFGRGDDHWGQGTLVTVSS
VL: DIQMTQSPSSLSASVGDRVTITCQASQDINIYLNWYQQRPGKAPKLLIYDASNLQTGVPSRFSGSGSGTDFTITISSLQPEDIATYYCQQYDNLPRSFGQGTKLEI
notes: IgG; V domains only
As for B1, a half-maximal response with SARS-COV-2 RBD [1] (EC50) required 2.42 ng/mL.

B2: C1026 (antibody, V domains shown)
VH: QVQLVESGGGVVQPGKSLRLSCAASGFIFSSYSMHWVRQAPGKGLEWVAVVSNDGSGKFYADSVRGRFTIFRDNSKNTLYLQVSSLRAEDTAVYYCARDALTSISVLFDCWGQGTLVTVSS
VL: DIQMTQSPSSLSASLGDRVTITCRASQSISNYLNWYQQKPGKAPKLLIYGASSLQSGVPSRFSGSGSGTDFTLTISNLQPEDFATYFCQQSYSTPSVTFGGGTKVEIK
notes: IgG; V domains only
Turning to B2, the half-maximal effective concentration (EC50) – broadly, the concentration that produces a half-maximal response – in the assay with SARS-COV-2 RBD [1] is 2.5 ng/mL.

B3: C1041 (antibody, V domains shown)
VH: QVQLVQSGAEVKKPGASVKVSCKASGYTFSDHYIYWVRQAPGQGLEWMGIINPSAGSTSYAQKFQGRVTMTRDTSTSTVYMELSSLRSEDTAVYYCARDIVFVPATMAMDVWGLGTTVTVSS
VL: EIVLTQSPATLSLSPGERATLSCRASQSVSRYLAWYQQKPGQAPRLLIYDASNRATGIPARFSGSGSGTDFTLTISSLEPEDFAVYYCQQRSNWLFTFGPGTKVDIK
notes: IgG; V domains only
Molecule B3 yielded an EC50 in the assay with SARS-COV-2 RBD [1] of 3.65 ng/mL.

B4: C1042 (antibody, V domains shown)
VH: B3 VH with A55G, R87K, A97S, L114Q
VL: B3 VL
notes: IgG; V domains only
B4 came in with an EC50 in the assay with SARS-COV-2 RBD [1] of 4.55 ng/mL.

B5: C950 (antibody, V domains shown)
VH: QVQLVESGGGLVKPGGSLRLSCAASGFTFSDYCVTWIRQAPGKGLEWLSYSNTNDSSRSYADSVKGRFTISRDNAKNSLYLQMDSLRAEDTAVYYCARRGDGNVPLFHYYYMDVWGKGTTVTVSS
VL: QSVLTQPPSASGTAGQRVTISCSGGSSNIGSNTVHWYQQLPGTAPKLLIYSNYKRPSGVPDRFSGSKSGASASLAISGLQSEDEAEYYCAAWDDSANGPIFGGGTKLTVL
notes: IgG; V domains only
B5 returned an EC50 with SARS-COV-2 RBD [1] of 2.15 ng/mL. This EC50 lies about 2.1-fold lower than the previous one.

B6: C1034 (antibody, V domains shown)
VH: QLQLQESGPGLVKPSETLSLTCTVSGGSVSSNNHYWGWIRQPPGKGLEWIGSISSSGSTHHNPSLRSRVTISVDTSKNHFSLKLNSVTATDTAVYYCARVDSSGWYTGDVFDVWGQGTMVTVSS
VL: DIQMTQSPSSLSASVGDRVTITCRASQTINNYLNWYQQKPGKPPKLLIYAAFSLHSGVPSRFSGSRSGTDFTLTISSLQPEDFATYYCQHSYSTMCSFGQGTKLEIK
notes: IgG; V domains only
B6 displayed an EC50 in the assay with SARS-COV-2 RBD [1] of 2.77 ng/mL.

B7: C1023 (antibody, V domains shown)
VH: QVQLVQSGAEMKKPGASVKISCKASGDTFTTNYFHWVRQAPGQGLEWMGIINPSAGSTTYAQRFQGRVTMTGDSSTNTVYLELRSLRSEDTAMYFCAKGSYIPAMRSSFDPWGQGTLVTVSS
VL: EIVLTQSPGTLSLSPGERATLSCRASQSVSHRYLAWYQQKPGQAPRLLIDGASNRATGIPDRFSGSGSGTDFTLTISRLEPEDFGVYYCQQYGSSPPFTFGQGTKLEIK
notes: IgG; V domains only
In the assay with SARS-COV-2 RBD [1], B7 registered an EC50 of 1.13 ng/mL.

B8: C1022 (antibody, V domains shown)
VH: QVQLVQSGAEVKTPGASVKVSCQASGDTFTSQYLHWVRQAPGQGLEWMGIINPTAGSTTYAQKFQGRVTMTRDTSTSTVYMELRSLRSEDMAVYYCARGGFIPMVRGFIDHWGQGTLVTVSS
VL: QSALTQPASVSGSPGQSITISCTGTSSDVGGYNYVSWYQQHPGKAPKLMIYDVSNRPSGVSTRFSGSKSGNTASLTISGLQAEDEADYYCSSPTSSNTHVFGTGTKVTVL
notes: IgG; V domains only
On to B8, for which the EC50 with SARS-COV-2 RBD [1] was found to be 1.66 ng/mL. The EC50 values of the last two molecules are within 1.5-fold of each other.

B9: C1038 (antibody, V domains shown)
VH: QVQLVQSGAEVKKPGASVKVSCKASGYTFTSYYMHWVRQAPGQGLEWMGIINPSGGSTRYAQKFQGRVTMTRDTSTSTVYMELSSLRSEDTAVYYCAREGVGGTSYFDYWGQGTLVTVSS
VL: SYELTQPPSVSVAPGKTARITCGGNNIGSKSVHWYQQKPGQAPVLVVYDDSDRPSGIPERFSGSNSGNTATLTISRVEAGDEADYYCQVWDSSSDPYVFGTGTKVTVL
notes: IgG; V domains only
Turning to B9, the EC50 in the assay with SARS-COV-2 RBD [1] turned out to be 2.46 ng/mL.

B10: C1039 (antibody, V domains shown)
VH: QVQLVQSGAEVKKPGASVKVSCKASGYTFTSHYMHWVRQAPGQGLEWMGIINPRTRYAQMFQGRVSMNRDTSTSTVYMELSSLTSEDTAVYYCAREGLGATAYFDYWGQGTLVTVSS
VL: B9 VL with R19G, N25S, N26D, T106S
notes: IgG; V domains only
In the case of B10, in the assay with SARS-COV-2 RBD [1], the EC50 came out at 2.61 ng/mL.

B11: C1032 (antibody, V domains shown)
VH: EVQLVESGGSLVKPGGSLRLSCVASGLTFNHAWMSWVRQAPGKGLEWVGRIKSKIDGGTTDYAAPVKGRFTISRDDSKSTQYLQMNSLKTEDTAVYYCTTDCFWRLGGTTCYEHDAFDVWGQGTMVTVS
VL: DIQMTQSPSSLSASVGDRVTITCRASQAIATFLNWYQQKPGKAPKLLIYAASSLQSGVPSRFSGSGSGTDFTLTISSLQPEDFATYYCQQSYNSLHFGGGTKVEIK
notes: IgG; V domains only
As for B11, in the assay with SARS-COV-2 RBD [1], it took 2.89 ng/mL to reach a half-maximal effect (EC50).

B12: C1031 (antibody, V domains shown)
VH: QLQLQESGPGLVKPSETLSLTCTVSGGSINTSTYYWGWIRQPPGKGLEWIGNIYYSGITYYNPSLKSRVTISVDTSKNQFSLKLRSVTAADTAVYYCARQHRFGSGSSELLWGQGTLVTVSS
VL: QSALTQPPSASGSPGQSVTISCTGTSSDVGSYNYVSWYQQHPGKAPKLMIYEVTKRPSGVPDRFSGSKSGNTASLTVSGLQADDEADYYCSSYAGSSNLVFGGGTKLTV
notes: IgG; V domains only
As for B12, the midpoint of the response in the assay with SARS-COV-2 RBD [1], the EC50, lay at 8.71 ng/mL.

B13: C838 (antibody, V domains shown)
VH: EVQLVESGGGLVQPGKSLRLSCTASGFTFEDYAMHWVRQAPGKGLEWVSGINWKSGSRGYADSAKGRFTISGNTAKNTLHLQMNSLRAEDTAFYYCAKAGVRNIAAAGPDLNFDFWGQGTLVTVSS
VL: EIVLTQSPATLSLSPGERATLSCRASQSVGTYLAWYQHKLGQAPRLLIYDATKRATGIPARFSGSGSGTDFTLTISSLEPEDFAIYYCQQRITFGQGTRLEIK
notes: IgG; V domains only
As to B13, in the assay with SARS-COV-2 RBD [1], the half-maximal effective concentration (EC50) is 3.03 ng/mL.

B14: C1025 (antibody, V domains shown)
VH: EVQLVESGGGLVQPGRSLRLSCAASGFTFDDYAMHWVRQVPGKGLEWVSGVSWNGDSVGYADSMEGRFTISRDNAKNSLYLQMNSLRTEDTALYYCAKGVDYSSSSNFDFWGQGTLVTVSS
VL: DIQMTQSPSSVSASVGDRVTITCRASQGISSWLAWYQQKPGKAPKLLISLASSLQSGVPSRFSGSGSETDFTLIISSLQPEDFATYYCQQSSSFPLTFGGGTKVEIK
notes: IgG; V domains only
Molecule B14 had an EC50 with SARS-COV-2 RBD [1] of 2.51 ng/mL.

B15: C983 (antibody, V domains shown)
VH: QVQLVESGGGVVRPGRSLRLSCAASGFTFSKYGMHWVRQAPGKGLECVASIAYDGSDDSYADSVKGRFIISRDNSKNTLYLQMNSLRAADTAVYYCAKVLGSYCSASSCHGQRPDYWGQGTLVTVSS
VL: DIQMTQSPSSLSAYVGDRVTITCQASQDISNHLNWYQQKPGKAPNLLIYDASNLETGVPSRFSGSGSGTDFSFTISSLQPEDIATYYCQQYDNVPPWTFGQGTKVEIK
The molecule B15 displayed an EC50 with SARS-COV-2 RBD [2] of 2.11 ng/mL.

B16: C1033 (antibody, V domains shown)
VH: QVQLVQSGAEVKKPGSSVKVSCKASGGTFSRNVISWVRQAPGQGLEWMGGIIPMFGTANYAQKFQGRVTISADESTSTAYMELSSLRSEDTAVYYCAREDFILESAPIRENSYYYYGMDVWGQGTTVTVSS
VL: EIVLTQSPGTLSLSPGERATLSCRASQSVSSNYLAWYQQKPGQAPRLLIYDASSRATGIPDRFSGSGSGTDFTLTIRRLEPEDFAVYYCQQYGGSPRTFGQGTKVEIK
notes: IgG; V domains only
On to B16, for which, in the assay with SARS-COV-2 RBD [1], it took 3.63 ng/mL to reach a half-maximal effect (EC50).

B17: C1035 (antibody, V domains shown)
VH: EVQLVESGGGLIQPGGSLRLSCAASGLTVSRNYMNWVRQAPGKGLEWVSVMYSGGSTFYADSVKGRFTISRDNSKNTLYLQMNSLRAEDTAVYYCARESYGMDVWGQGTTVTVSS
VL: B16 VL with V29F, N32T, D51G, R77S, G93V, G94T, R97W
notes: IgG; V domains only
B17: a half-maximal effect in the assay with SARS-COV-2 RBD [1] (EC50) was put at 2.05 ng/mL.

B18: C1036 (antibody, V domains shown)
VH: B17 VH with T28I, A40V, S53A, N73D, A87P
VL: B16 VL with V29I, N32T, D51G, R77S, G93V, G94T, R97W
notes: IgG; V domains only
For B18, in the assay with SARS-COV-2 RBD [1], the EC50 came to 1.76 ng/mL. This EC50 and that of the molecule before are within 1.5-fold of each other.

B19: C1028 (antibody, V domains shown)
VH: QVQLVESGGGVVQPGRSLRLSCADSGFTFSSSGMHWVRQAPGKGLEWVGVISYDGGNKYYADSVKGRFTISRDNSKNTLYLQMNSLRAEDTAVYYCAKDTPGGDDIMTGWGLYGMDVWGQGTTVTVSS
VL: DIQMTQSPSSLSASVEDRVTITCRASQSISSYLNWYQQKPGKAPKLLIYAAISLQSGVPSRFSGSGSGTEFTLTISSLQPEDFATYYCQQSYTTPWAFGQGTKVEIK
notes: IgG; V domains only
In the assay with SARS-COV-2 RBD [1], B19 displayed a half-maximal effective concentration (EC50) of 3.58 ng/mL.

B20: C1024 (antibody, V domains shown)
VH: QVQLVESGGGVVQPGRSLRLSCAASGFTFSDYAMHWVRQAPGKGLEWVAMISYDGNSQYYADSVKGRFTISRDNSKNTLYLQMNILRPEDTAVYYCARTFSIRIGHHDYWGQGTLVTVSS
VL: NFMLTQPHSVSESPGKTVTISCTGSSGSIASNYVHWYQQRPGSAPTTVIFEDNQRPSGVPDRFSGSIDSSSNSASLTISGLKTEDEADYYCQSYDSSSFWVFGGGTKLTVL
notes: IgG; V domains only
In the assay with SARS-COV-2 RBD [1], B20 had an EC50 of 2.37 ng/mL.

B21: C1029 (antibody, V domains shown)
VH: QVQLVESGGGVVQPGRSLRLSCAASGFTFSSFGMHWVRQAPGKGLEWVAVISYDGSYKDYGDSVKGRFTISRDNSKNTLYLQMNSLRAEDTAVYYCARDSNVDTVMVTWFDYWGRGTLVTVSS
VL: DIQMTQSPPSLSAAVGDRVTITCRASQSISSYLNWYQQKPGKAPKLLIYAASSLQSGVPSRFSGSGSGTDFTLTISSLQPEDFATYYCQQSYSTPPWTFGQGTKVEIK
notes: IgG; V domains only
B21 yielded an EC50 with SARS-COV-2 RBD [1] of 2.86 ng/mL.

B22: C1044 (antibody, V domains shown)
VH: QVQLQESGPGLVKPSQTLSLTCTVSGGSISSGNYYLTWIRQPAGKGLEWIGHIYTSGSTNYNPSLKSRVTISVDTSMNQFSLKLSSVTAADTAVYYCARDIPPTWYFDLWGRGTLVTVSS
VL: SYELTQPPSVSVAPGKTARITCGGNNIGSKNVHWYQQKPGQAPVLVVYDDSDRPSGIPERFSGSNSGNTATLTISRVEAGDEAGYYCQVWDSTSDHLFWVFGGGTKLTVL
notes: IgG; V domains only
On to B22, for which the EC50 with SARS-COV-2 RBD [1] was found to be 3.22 ng/mL.

B23: C1045 (antibody, V domains shown)
VH: B22 VH with G27D, L36W, T37S, T59P, N62K, V73L, M77K, S85T, V94M, P103S
VL: B22 VL with T21P, N25T, N26D, V46A, N68S, G84D, T93S, S94G, H96R, F98S
notes: IgG; V domains only
B23: the EC50 with SARS-COV-2 RBD [1] was determined as 2.57 ng/mL.
